Data reported in publication PMC9135340.
Read-outs that look alike come from different tables or passages of the source.

What was measured:
PTCH2 (Homo sapiens) [1] = molecular target: PTCH2 (Homo sapiens) (UniProt Q9Y6C5); conditions: cited from earlier work
PTCH1 (Homo sapiens) [2] = molecular target: PTCH1 (Homo sapiens) (UniProt Q13635); conditions: cited from earlier work
PTCH2 (Homo sapiens) [3] = molecular target: PTCH2 (Homo sapiens) (UniProt Q9Y6C5); conditions: cited from earlier work; remark: listed apart in the source
PTCH1 (Homo sapiens) [4] = molecular target: PTCH1 (Homo sapiens) (UniProt Q13635); conditions: cited from earlier work; remark: listed apart in the source
PTCH2 (Homo sapiens) [5] = molecular target: PTCH2 (Homo sapiens) (UniProt Q9Y6C5); conditions: cited from earlier work; remark: listed apart in the source
PTCH1 (Homo sapiens) [6] = molecular target: PTCH1 (Homo sapiens) (UniProt Q13635); conditions: cited from earlier work; remark: listed apart in the source
[7] = molecular target: recombinant PTCH2 (amino acids 79 to 379; putative loop 1 ligand binding region) (UniProt Q9Y6C5); test: SPR; Biacore T100; rPTCH2-His immobilised on a nickel chip; rTRP120-TR or rTrx injected at 2-fold dilutions (800nM to 25nM); three independent experiments
Sequence of recombinant PTCH2 (amino acids 79 to 379; putative loop 1 ligand binding region) (Q9Y6C5 79-379): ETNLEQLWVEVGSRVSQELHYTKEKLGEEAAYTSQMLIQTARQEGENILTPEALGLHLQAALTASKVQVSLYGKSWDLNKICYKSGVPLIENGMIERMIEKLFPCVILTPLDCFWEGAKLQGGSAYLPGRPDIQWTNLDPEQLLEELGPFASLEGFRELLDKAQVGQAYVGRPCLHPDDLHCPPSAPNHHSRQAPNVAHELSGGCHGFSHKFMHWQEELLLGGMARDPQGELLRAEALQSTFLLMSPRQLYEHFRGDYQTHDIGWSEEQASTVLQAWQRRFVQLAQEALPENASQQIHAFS

Sequence of PTCH2 (Homo sapiens) (Q9Y6C5 whole entry): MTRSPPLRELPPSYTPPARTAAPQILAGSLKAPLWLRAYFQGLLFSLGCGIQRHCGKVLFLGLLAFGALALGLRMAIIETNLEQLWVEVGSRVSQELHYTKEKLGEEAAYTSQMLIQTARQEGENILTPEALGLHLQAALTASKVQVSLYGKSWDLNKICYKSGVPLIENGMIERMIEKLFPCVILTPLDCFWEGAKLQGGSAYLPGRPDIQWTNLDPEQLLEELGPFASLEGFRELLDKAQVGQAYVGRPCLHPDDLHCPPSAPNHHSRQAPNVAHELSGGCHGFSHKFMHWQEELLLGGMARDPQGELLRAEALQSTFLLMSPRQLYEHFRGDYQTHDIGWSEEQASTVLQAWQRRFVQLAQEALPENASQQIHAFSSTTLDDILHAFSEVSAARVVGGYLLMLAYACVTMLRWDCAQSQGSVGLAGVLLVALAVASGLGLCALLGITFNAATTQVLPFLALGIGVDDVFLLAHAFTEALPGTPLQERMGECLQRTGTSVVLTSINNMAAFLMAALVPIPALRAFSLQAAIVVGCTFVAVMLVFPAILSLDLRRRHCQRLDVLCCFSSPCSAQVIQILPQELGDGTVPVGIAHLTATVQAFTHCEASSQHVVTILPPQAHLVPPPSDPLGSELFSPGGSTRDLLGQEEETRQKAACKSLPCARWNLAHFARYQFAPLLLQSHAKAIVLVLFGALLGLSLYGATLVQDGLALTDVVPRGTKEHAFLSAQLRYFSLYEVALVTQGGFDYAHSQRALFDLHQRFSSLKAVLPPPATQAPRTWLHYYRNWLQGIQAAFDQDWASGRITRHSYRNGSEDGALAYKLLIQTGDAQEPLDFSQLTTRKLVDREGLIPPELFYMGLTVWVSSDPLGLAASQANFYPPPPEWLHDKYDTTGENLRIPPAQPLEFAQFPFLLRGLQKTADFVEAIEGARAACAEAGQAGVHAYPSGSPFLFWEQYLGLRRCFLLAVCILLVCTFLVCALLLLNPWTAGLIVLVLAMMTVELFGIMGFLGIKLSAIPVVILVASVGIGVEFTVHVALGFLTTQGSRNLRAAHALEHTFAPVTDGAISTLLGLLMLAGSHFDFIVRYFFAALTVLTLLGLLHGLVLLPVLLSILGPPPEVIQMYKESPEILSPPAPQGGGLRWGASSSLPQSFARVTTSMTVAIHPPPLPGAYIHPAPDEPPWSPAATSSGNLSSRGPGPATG
Sequence of PTCH1 (Homo sapiens) (Q13635 whole entry, the tested form may be a part): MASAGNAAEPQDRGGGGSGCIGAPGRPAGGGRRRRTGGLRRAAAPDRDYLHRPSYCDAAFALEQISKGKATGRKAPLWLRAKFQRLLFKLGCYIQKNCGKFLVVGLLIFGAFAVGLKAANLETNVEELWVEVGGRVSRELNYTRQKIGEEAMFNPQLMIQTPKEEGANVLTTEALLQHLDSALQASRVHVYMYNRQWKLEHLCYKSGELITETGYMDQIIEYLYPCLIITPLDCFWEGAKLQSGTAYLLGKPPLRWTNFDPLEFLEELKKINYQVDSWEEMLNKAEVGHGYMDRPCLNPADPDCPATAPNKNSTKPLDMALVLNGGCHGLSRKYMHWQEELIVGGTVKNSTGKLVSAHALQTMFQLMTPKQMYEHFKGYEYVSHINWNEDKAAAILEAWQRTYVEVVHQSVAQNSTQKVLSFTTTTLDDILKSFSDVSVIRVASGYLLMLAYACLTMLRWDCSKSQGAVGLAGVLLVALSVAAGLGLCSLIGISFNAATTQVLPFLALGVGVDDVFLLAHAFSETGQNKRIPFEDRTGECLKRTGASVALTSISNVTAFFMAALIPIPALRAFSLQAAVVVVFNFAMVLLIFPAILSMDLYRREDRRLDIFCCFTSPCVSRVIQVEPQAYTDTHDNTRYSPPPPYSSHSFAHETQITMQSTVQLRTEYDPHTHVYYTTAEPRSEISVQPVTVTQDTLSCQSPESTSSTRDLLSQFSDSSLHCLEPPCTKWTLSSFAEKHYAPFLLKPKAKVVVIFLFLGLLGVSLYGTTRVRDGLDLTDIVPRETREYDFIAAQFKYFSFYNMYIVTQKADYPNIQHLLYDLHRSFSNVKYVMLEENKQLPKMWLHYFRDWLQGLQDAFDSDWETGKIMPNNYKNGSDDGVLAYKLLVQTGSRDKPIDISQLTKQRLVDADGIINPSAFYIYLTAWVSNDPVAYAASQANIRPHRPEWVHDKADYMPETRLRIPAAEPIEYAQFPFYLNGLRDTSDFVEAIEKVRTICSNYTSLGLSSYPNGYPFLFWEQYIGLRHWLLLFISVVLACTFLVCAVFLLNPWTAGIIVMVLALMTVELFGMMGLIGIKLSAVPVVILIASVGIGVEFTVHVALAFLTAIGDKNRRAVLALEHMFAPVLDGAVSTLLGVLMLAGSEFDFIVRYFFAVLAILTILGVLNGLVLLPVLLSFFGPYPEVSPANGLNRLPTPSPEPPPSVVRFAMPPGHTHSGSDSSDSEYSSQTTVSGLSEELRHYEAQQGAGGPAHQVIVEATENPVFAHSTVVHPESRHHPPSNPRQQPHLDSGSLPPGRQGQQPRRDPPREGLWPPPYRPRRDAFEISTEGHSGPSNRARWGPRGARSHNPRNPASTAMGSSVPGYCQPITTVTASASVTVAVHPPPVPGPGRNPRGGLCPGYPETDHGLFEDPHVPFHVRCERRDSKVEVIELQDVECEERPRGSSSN
Sequence of Ihh (Q14623 28-202): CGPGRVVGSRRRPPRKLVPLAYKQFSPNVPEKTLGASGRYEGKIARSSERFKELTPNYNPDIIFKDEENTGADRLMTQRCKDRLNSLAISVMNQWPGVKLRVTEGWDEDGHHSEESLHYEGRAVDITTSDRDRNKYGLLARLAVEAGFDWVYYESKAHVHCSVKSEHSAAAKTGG

Substance: Shh (from UniProt Q15465)
- Kd (PTCH2 (Homo sapiens) [1]): 1.8 nM
- Kd (PTCH1 (Homo sapiens) [2]): 1 nM

Substance: Ihh (from UniProt Q14623)
- Kd (PTCH2 (Homo sapiens) [3]): 0.4 nM
- Kd (PTCH1 (Homo sapiens) [4]): 1 nM

Substance: Dhh (from UniProt O43323)
- Kd (PTCH2 (Homo sapiens) [5]): 0.6 nM
- Kd (PTCH1 (Homo sapiens) [6]): 2.6 nM

Substance: recombinant TRP120 tandem repeat domain (rTRP120-TR) (domain or fragment)
- Kd [7]: 4.4 nM
